The values below come from patent US9040017B2, “Liver-receptor imaging injection, dispensing method and pharmaceutical composition thereof” (INSTITUTE OF NUCLEAR ENERGY RESEARCH ATOMIC ENERGY COUNCIL, …, priority 2010, dated 2015).

This data set is described as follows: Radiochemical purity before and after autoclave sterilization. Format: physicochemical. The conditions noted are these: DTPA-hexa-lactoside autoclaved in a lyophilized vial, then 111In radiolabel. The method, then:
To test whether ^111In radiolabel of DTPA-hexa-lactoside was affected by autoclave sterilization, DTPA-hexa-lactoside was put into a lyophilized vial to set in an autoclave for sterilizing. After that, ^111In radiolabel proceeded. […] The comparison of radiochemical purity between before and after autoclave sterilization was illustrated in FIG. 2. First, a developing solvent of radio-ITLC of 10 mM sodium citrate buffer (about pH 5) were prepared as follows: 0.13 g citric acid monohydrate and 0.11 g trisodium citrate dehydrate were weighed precisely to dissolve in 100 ml water for injection. Then 10 ml of the solution were added in the developing tank as a developing solvent. The position away from the bottom of a TLC-SG film about 2 cm was marked with a pencil as the origin while the position away from the bottom about 9 cm was marked as the end. A few samples were taken by a micropipette to drop at the origin. Then, the TLC-SG film was put in a developing tank containing a buffer (about pH 5) of 10 mM sodium citrate to develop. The film were taken out to dry in the fume cabinet while the liquid level reached the end. […] The calculating formula is as follows: Radiochemical purity (%)=A/B×100%, wherein A refers to a calculated area peak of ^111In-DTPA-hexa-lactoside (Rf=0.0-0.1), and B refers to calculated area of all peaks.

As for “DTPA derivatives of AHA-Asp[DCM-Lys(ah-Lac)3]2 [DTPA-hexa-lactoside]”, the “radiochemical purity of 111In after autoclave sterilization” value is less than 90%.
